Laboratory results: the supplement of paper PMC10567573

B1: ZNF207 (parent)
chain: CHICHKKLYTGPGLAIHCMQVHKE

Variants of: B1
Assay: protein stability index of a GFP-peptide fusion (GPS, HEK-293T) (PSI 1-6); higher = more stable
Conditions: c terminus: a fixed tail appended
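Also: lentivirally expressed fusions sorted by FACS into six bins by GFP to DsRed ratio, PSI derived from sequencing read proportions per bin multiplied by bin number.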

Row | Variant | protein stability index
1 | CHICTKKLYTGPGLAIHCMQVHKE [H5T] | 2.48
2 | CHICQKKLYTGPGLAIHCMQVHKE [H5Q] | 2.79
3 | CHICCKKLYTGPGLAIHCMQVHKE [H5C] | 2.4
4 | CHICNKKLYTGPGLAIHCMQVHKE [H5N] | 3.18
5 | CHICGKKLYTGPGLAIHCMQVHKE [H5G] | 3.35
6 | CHICAKKLYTGPGLAIHCMQVHKE [H5A] | 3.83
7 | CHICWKKLYTGPGLAIHCMQVHKE [H5W] | 2.74
8 | CHICFKKLYTGPGLAIHCMQVHKE [H5F] | 3.26
9 | CHICRKKLYTGPGLAIHCMQVHKE [H5R] | 2.96
10 | CHICMKKLYTGPGLAIHCMQVHKE [H5M] | 3.33
11 | CHICKKKLYTGPGLAIHCMQVHKE [H5K] | 2.55
12 | CHICDKKLYTGPGLAIHCMQVHKE [H5D] | 3.49
13 | CHICPKKLYTGPGLAIHCMQVHKE [H5P] | 2.39
14 | CHICVKKLYTGPGLAIHCMQVHKE [H5V] | 1.63
15 | CHICYKKLYTGPGLAIHCMQVHKE [H5Y] | 2.97
16 | CHICSKKLYTGPGLAIHCMQVHKE [H5S] | 2.83
17 | CHICIKKLYTGPGLAIHCMQVHKE [H5I] | 2.03
18 | CHICLKKLYTGPGLAIHCMQVHKE [H5L] | 3.01
19 | CHICEKKLYTGPGLAIHCMQVHKE [H5E] | 3.63
20 | CVICHKKLYTGPGLAIHCMQVHKE [H2V] | 2.44
21 | CWICHKKLYTGPGLAIHCMQVHKE [H2W] | 2.61
22 | CYICHKKLYTGPGLAIHCMQVHKE [H2Y] | 2.74
23 | CHICHYKLYTGPGLAIHCMQVHKE [K6Y] | 2.72
24 | CHICHIKLYTGPGLAIHCMQVHKE [K6I] | 2.63

Row | Variant | protein stability index
25 | CHICHSKLYTGPGLAIHCMQVHKE [K6S] | 3.54
26 | CHICHEKLYTGPGLAIHCMQVHKE [K6E] | 4.41
27 | CHICHRKLYTGPGLAIHCMQVHKE [K6R] | 3.97
28 | CHICHWKLYTGPGLAIHCMQVHKE [K6W] | 2.17
29 | CHICHLKLYTGPGLAIHCMQVHKE [K6L] | 2.36
30 | CHICHAKLYTGPGLAIHCMQVHKE [K6A] | 4.37
31 | CHICHHKLYTGPGLAIHCMQVHKE [K6H] | 3.51
32 | CHICHVKLYTGPGLAIHCMQVHKE [K6V] | 3.41
33 | CHICHTKLYTGPGLAIHCMQVHKE [K6T] | 2.15
34 | CHICHDKLYTGPGLAIHCMQVHKE [K6D] | 3.28
35 | CHICHPKLYTGPGLAIHCMQVHKE [K6P] | 2.12
36 | CHICHCKLYTGPGLAIHCMQVHKE [K6C] | 3.45
37 | CHICHGKLYTGPGLAIHCMQVHKE [K6G] | 3.03
38 | CHICHFKLYTGPGLAIHCMQVHKE [K6F] | 1.84
39 | CHICHNKLYTGPGLAIHCMQVHKE [K6N] | 3.25
40 | CHICHMKLYTGPGLAIHCMQVHKE [K6M] | 3.35
41 | CHICHQKLYTGPGLAIHCMQVHKE [K6Q] | 4.09
42 | CHICHKILYTGPGLAIHCMQVHKE [K7I] | 3.73
43 | CHICHKRLYTGPGLAIHCMQVHKE [K7R] | 3.48
44 | CHICHKLLYTGPGLAIHCMQVHKE [K7L] | 4.3
45 | CHICHKMLYTGPGLAIHCMQVHKE [K7M] | 3.86
46 | CHICHKALYTGPGLAIHCMQVHKE [K7A] | 3.92
47 | CHICHKNLYTGPGLAIHCMQVHKE [K7N] | 4.21
48 | CHICHKPLYTGPGLAIHCMQVHKE [K7P] | 2.55

Row | Variant | protein stability index
49 | CHICHKCLYTGPGLAIHCMQVHKE [K7C] | 3.63
50 | CHICHKGLYTGPGLAIHCMQVHKE [K7G] | 3.27
51 | CHICHKHLYTGPGLAIHCMQVHKE [K7H] | 3.25
52 | CHICHKQLYTGPGLAIHCMQVHKE [K7Q] | 4.11
53 | CHICHKELYTGPGLAIHCMQVHKE [K7E] | 4.14
54 | CHICHKSLYTGPGLAIHCMQVHKE [K7S] | 3.66
55 | CHICHKFLYTGPGLAIHCMQVHKE [K7F] | 4.02
56 | CHICHKTLYTGPGLAIHCMQVHKE [K7T] | 3.98
57 | CHICHKDLYTGPGLAIHCMQVHKE [K7D] | 4.16
58 | CHIPHKKLYTGPGLAIHCMQVHKE [C4P] | 2.5
59 | CHIMHKKLYTGPGLAIHCMQVHKE [C4M] | 2.12
60 | CHIIHKKLYTGPGLAIHCMQVHKE [C4I] | 3.16
61 | CHIQHKKLYTGPGLAIHCMQVHKE [C4Q] | 2.01
62 | CHISHKKLYTGPGLAIHCMQVHKE [C4S] | 1.38
63 | CHILHKKLYTGPGLAIHCMQVHKE [C4L] | 1.39
64 | CHIDHKKLYTGPGLAIHCMQVHKE [C4D] | 1.6
65 | CHIWHKKLYTGPGLAIHCMQVHKE [C4W] | 1.88
66 | CHIFHKKLYTGPGLAIHCMQVHKE [C4F] | 1.93
67 | CHINHKKLYTGPGLAIHCMQVHKE [C4N] | 1.9
68 | CHIAHKKLYTGPGLAIHCMQVHKE [C4A] | 1.36
69 | CHIEHKKLYTGPGLAIHCMQVHKE [C4E] | 1.07
70 | CHIHHKKLYTGPGLAIHCMQVHKE [C4H] | 1.6
71 | CHIKHKKLYTGPGLAIHCMQVHKE [C4K] | 1.15
72 | CHITHKKLYTGPGLAIHCMQVHKE [C4T] | 1.5

Row | Variant | protein stability index
73 | CHIYHKKLYTGPGLAIHCMQVHKE [C4Y] | 2.04
74 | CHIGHKKLYTGPGLAIHCMQVHKE [C4G] | 1.7
75 | CHIRHKKLYTGPGLAIHCMQVHKE [C4R] | 1.94
76 | CHQCHKKLYTGPGLAIHCMQVHKE [I3Q] | 2.44
77 | CHPCHKKLYTGPGLAIHCMQVHKE [I3P] | 1.99
78 | CHDCHKKLYTGPGLAIHCMQVHKE [I3D] | 2.24
79 | CHVCHKKLYTGPGLAIHCMQVHKE [I3V] | 2.51
80 | CHACHKKLYTGPGLAIHCMQVHKE [I3A] | 2.17
81 | CHRCHKKLYTGPGLAIHCMQVHKE [I3R] | 2.52
82 | CHHCHKKLYTGPGLAIHCMQVHKE [I3H] | 3.67
83 | CHKCHKKLYTGPGLAIHCMQVHKE [I3K] | 3.1
84 | CHFCHKKLYTGPGLAIHCMQVHKE [I3F] | 2.34
85 | CHECHKKLYTGPGLAIHCMQVHKE [I3E] | 2.37
86 | CHSCHKKLYTGPGLAIHCMQVHKE [I3S] | 2.58
87 | CHMCHKKLYTGPGLAIHCMQVHKE [I3M] | 2.73
88 | CHWCHKKLYTGPGLAIHCMQVHKE [I3W] | 2.73
89 | CHCCHKKLYTGPGLAIHCMQVHKE [I3C] | 2.54
90 | CHGCHKKLYTGPGLAIHCMQVHKE [I3G] | 2.48
91 | CHLCHKKLYTGPGLAIHCMQVHKE [I3L] | 3.09
92 | CHYCHKKLYTGPGLAIHCMQVHKE [I3Y] | 3.43
93 | CHTCHKKLYTGPGLAIHCMQVHKE [I3T] | 3.03
94 | CHNCHKKLYTGPGLAIHCMQVHKE [I3N] | 2.19
